The assay addresses T1, polypeptide S29 (HBcAg-aa141-aa154) (hepatitis B virus).
T1 peptide: STLPETTVVRRRGR
Briefly: indirect ELISA on coated peptide, antibody 1 ug/mL; positive if measured/background > 5.

These results are taken from patent US20230069418A1 (XIAMEN INNODX BIOTECH, published 2023).

B1: 2A7 monoclonal antibody (antibody, V domains shown)
VH: QVQLQQPGAELVKPGASVKLSCKASGYTFTRYWMHWVMQRPGQDLEWIGEINPINGRTNYNEKFRRKATLTVDKSSSTVYIQFSSLTSEDSAVYFCTREGYRNDYYYAMDFWGRGTSVTVSS
VL: DIQMTQTSSSLSASPGDRVTISCRASQGINNYLNWYKQKTDGTFKLLIYYTSYLHSGVPSRFSGRGSGTDYSLTISNLEPEDVATYYCQQYGKLPWTFGGGTKLEIK
notes: also called HBc-2A7; 2A7-21
With B1, the binding result was “binds”.
